Assay results: publication PMC3272369
Like-named read-outs stand apart in the source and are kept apart here.

Legend:
Assay in all cases: SPR
[1] = molecular target: complement factor H, allotypic variant Ile62 (human) (UniProt P08603)
[2] = molecular target: complement factor H, allotypic variant Val62 (human) (UniProt P08603)
[3] = molecular target: complement factor H, allotypic variant Ile62 (human) (UniProt P08603); remark: listed apart in the source

Kd [1]: 1.03 µM
Kd [2]: 1.33 µM
Kd [3]: 1.04 µM
Substance: C3b (from UniProt P01024 23-667; P01024 749-1663) (domain or fragment)
